Changes are numbered by the printed parent chain. Like-named read-outs stand apart in the source and are kept apart here.
What was measured:
[1] = target: T1, cynomolgus monkey FcγRIIIaS extracellular domain with C-terminal His-tag (cynomolgus monkey, UniProt Q8SPW2 21-206 at identity 1.00)); assay: SPR, KD(SG1)/KD(variant)
T1 construct: also called cyno FcgRIIIaS; cynoFcγRIIIaS
T1 chain: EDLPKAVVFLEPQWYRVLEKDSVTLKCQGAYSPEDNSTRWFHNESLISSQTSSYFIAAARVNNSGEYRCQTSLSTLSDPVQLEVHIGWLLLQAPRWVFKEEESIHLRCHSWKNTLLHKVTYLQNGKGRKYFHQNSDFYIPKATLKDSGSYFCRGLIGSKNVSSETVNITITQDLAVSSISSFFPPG

[2] = target: T2, cynomolgus monkey FcγRIIb extracellular domain with C-terminal His-tag (cynomolgus monkey); assay: SPR, KD(SG1)/KD(variant)
T2 construct: also called cyno FcgRIIb; cynoFcγRIIb
T2 chain: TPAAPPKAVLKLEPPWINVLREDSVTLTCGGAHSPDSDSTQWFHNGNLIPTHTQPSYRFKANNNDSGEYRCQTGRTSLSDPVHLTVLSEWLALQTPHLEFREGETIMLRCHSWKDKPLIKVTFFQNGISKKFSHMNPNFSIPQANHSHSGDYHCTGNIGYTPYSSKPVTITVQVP

[3] = target: T3, cynomolgus monkey FcγRIIa3 extracellular domain with C-terminal His-tag (cynomolgus monkey); assay: SPR, KD(SG1)/KD(variant)
T3 construct: also called cyno FcgRIIa3; cynoFcγRIIa3
T3 chain: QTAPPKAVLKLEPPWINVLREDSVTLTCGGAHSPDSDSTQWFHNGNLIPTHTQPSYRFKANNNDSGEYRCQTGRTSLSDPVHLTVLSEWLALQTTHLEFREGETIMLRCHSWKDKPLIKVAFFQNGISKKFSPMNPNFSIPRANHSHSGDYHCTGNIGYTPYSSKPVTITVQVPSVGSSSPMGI

[4] = target: T1, cynomolgus monkey FcγRIIIaS …; assay: SPR, antibody captured, FcγR analyte
[5] = target: T4, human FcγRIIaR extracellular domain with C-terminal His-tag (human, UniProt P12318 34-217); assay: SPR, KD(SG1)/KD(variant)
T4 construct: also called human FcgRIIaR; FcγRIIa (type R)
T4 chain: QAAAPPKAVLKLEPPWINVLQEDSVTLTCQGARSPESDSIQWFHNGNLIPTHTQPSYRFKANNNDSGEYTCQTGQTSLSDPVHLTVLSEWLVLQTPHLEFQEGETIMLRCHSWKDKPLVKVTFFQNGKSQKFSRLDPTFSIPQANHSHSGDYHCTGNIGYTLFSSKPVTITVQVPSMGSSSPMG

[6] = target: T5, human FcγRIIIaV extracellular domain with C-terminal His-tag (human, UniProt P08637 17-208); assay: SPR, KD(SG1)/KD(variant)
T5 construct: also called human FcgRIIIaV
T5 sequence (P08637 17-208 F176V): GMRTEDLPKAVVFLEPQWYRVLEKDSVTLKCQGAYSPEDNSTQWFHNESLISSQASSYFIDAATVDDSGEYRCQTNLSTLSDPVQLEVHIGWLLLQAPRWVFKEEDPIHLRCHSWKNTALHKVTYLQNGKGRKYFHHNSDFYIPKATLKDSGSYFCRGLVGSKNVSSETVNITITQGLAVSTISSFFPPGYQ

[7] = target: T6, human FcγRIIb extracellular domain with C-terminal His-tag (human, UniProt P31994 43-217); assay: SPR, KD(SG1)/KD(variant)
T6 construct: also called human FcgRIIb
T6 sequence: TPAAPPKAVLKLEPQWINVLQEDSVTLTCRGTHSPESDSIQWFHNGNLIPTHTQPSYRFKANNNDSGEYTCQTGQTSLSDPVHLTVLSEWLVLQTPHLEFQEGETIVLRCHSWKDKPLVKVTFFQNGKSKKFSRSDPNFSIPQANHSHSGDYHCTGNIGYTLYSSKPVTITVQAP

[8] = target: T7, cynomolgus monkey FcγRIIa2 extracellular domain with C-terminal His-tag (cynomolgus monkey); assay: SPR, KD(SG1)/KD(variant)
T7 construct: also called cyno FcgRIIa2; cynoFcγRIIa2
T7 chain: T3 chain with I127K, K130N, P133H, R142Q

[9] = target: T1, cynomolgus monkey FcγRIIIaS …; assay: SPR, antibody captured, FcγR analyte
Procedure: (§1) The kinetic analysis of interactions between these antibodies and FcγR was carried out using BIACORE® T200 or BIACORE® 4000 (GE Healthcare). HBS-EP+ (GE Healthcare) was used as the running buffer, and the measurement temperature was set to 25° C. […] After the measurement, the antibody captured on the chip was washed off by allowing reaction with 10 mM glycine-HCl, pH1.5 and 25 mM NaOH so that the chip was regenerated and used repeatedly. The sensorgrams obtained as measurement results were analyzed by the 1:1 Langmuir binding model using the BIACORE® Evaluation Software to calculate the binding rate constant ka (L/mol/s) and dissociation rate constant kd (1/s), and the dissociation constant KD (mol/L) was calculated from these values. […] Regarding such interactions, KD values were calculated using the following 1:1 binding model described in BIACORE® T100 Software Handbook BR1006-48 Edition AE.

[10] = target: T1, cynomolgus monkey FcγRIIIaS …; assay: SPR, KD(SG1)/KD(variant)
Procedure: as §1

[11] = target: T8, human FcγRIIaH extracellular domain with C-terminal His-tag (human, UniProt P12318 34-217); assay: SPR, antibody captured, FcγR analyte
T8 construct: also called human FcgRIIaH; FcγRIIa (type H)
T8 sequence: T4 chain with R134H

[12] = target: T9, cynomolgus monkey FcγRIIIaS extracellular domain, His-tagged (cynomolgus monkey, UniProt Q8SPW2 21-206 at identity 1.00)); assay: SPR Biacore, antibody captured, FcgR analyte
T9 construct: also called cyno FcγRIIIaS; cynoFcγRIIIaS; not shown: C-terminal His-tag
T9 chain: T1 chain

[13] = target: T10, human FcγRIIb extracellular domain, His-tagged (human, UniProt P31994 43-217); assay: SPR Biacore, KD(SG1)/KD(variant)
T10 construct: also called FcgRIIb (human); not shown: C-terminal His-tag
T10 sequence: T6 sequence

[14] = target: T11, cynomolgus monkey FcγRIIa2 extracellular domain, His-tagged (cynomolgus monkey); assay: SPR Biacore, antibody captured, FcgR analyte
T11 construct: also called cyno FcγRIIa2; cynoFcgRIIa2; not shown: C-terminal His-tag
T11 chain: T3 chain with I127K, K130N, P133H, R142Q

[15] = target: T10, human FcγRIIb extracellular domain, …; assay: SPR Biacore, antibody captured, FcgR analyte
[16] = target: T12, human FcγRIIaR extracellular domain, His-tagged (human, UniProt P12318 34-217); assay: SPR Biacore, antibody captured, FcgR analyte
T12 construct: also called human FcγRIIa (type R); FcgRIIaR; not shown: C-terminal His-tag
T12 chain: T4 chain

[17] = target: T13, Human latent myostatin (human, UniProt O14793 25-266; O14793 267-375); assay: SPR affinity condition (capture 18.5 RU), pH7.4, 37C
T13 construct: Biotinylated in the ELISAs; also called human myostatin latent form
T13 sequence 1: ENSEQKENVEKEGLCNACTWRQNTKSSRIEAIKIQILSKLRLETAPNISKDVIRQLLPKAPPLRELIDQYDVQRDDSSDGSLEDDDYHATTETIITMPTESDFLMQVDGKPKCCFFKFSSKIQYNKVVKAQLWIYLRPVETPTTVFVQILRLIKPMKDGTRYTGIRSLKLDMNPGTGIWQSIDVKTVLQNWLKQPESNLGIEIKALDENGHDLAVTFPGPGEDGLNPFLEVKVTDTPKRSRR
T13 sequence 2: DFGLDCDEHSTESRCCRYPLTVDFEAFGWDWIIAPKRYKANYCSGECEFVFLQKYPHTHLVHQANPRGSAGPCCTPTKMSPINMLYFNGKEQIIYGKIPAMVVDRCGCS
Procedure: (§2) The kinetic parameters of anti-latent myostatin antibodies against human, cynomolgus monkey (cyno), and mouse latent myostatin were assessed at 37° C. at pH7.4 using a BIACORE® T200 instrument (GE Healthcare). ProA/G (Pierce) was immobilized onto all flow cells of a CM4 chip using amine coupling kit (GE Healthcare). Anti-latent myostatin antibody and analytes were prepared in ACES pH7.4 (20 mM ACES, 150 mM NaCl, 1.2 mM CaCl₂), 0.05% TWEEN® 20, 0.005% NaN3). […] The sensor surface was regenerated with 25 mM NaOH. Kinetic parameters were determined by processing and fitting the data to a 1:1 binding model using BIACORE® T200 Evaluation software, version 2.0 (GE Healthcare).
(§3) All experimental settings were the same as in Example 7, except that measurements were also performed in ACES pH5.8 buffer in addition to ACES pH7.4 condition. Some antibodies were only measured against human latent myostatin. Antibody capture level was aimed at 185 RU and 18.5 RU, for avidity and affinity assay, respectively. Kinetic parameters were determined using 1:1 Binding fitting using BIACORE® T200 Evaluation software, version 2.0 (GE Healthcare).

[18] = target: T13, Human latent myostatin; assay: SPR avidity condition (capture 185 RU), pH5.8, 37C; pH 5.8
Procedure: as §2, §3

[19] = target: T14, human FcγRIIb extracellular domain, C-terminal His-tag (human, UniProt P31994 43-217); assay: SPR (BIACORE), antibody captured, FcgR analyte, 25 C
T14 construct: also called FcgRIIb
T14 sequence: T6 sequence

B1: MS1032LO06-MY201 (antibody, human IgG1, kappa)
heavy: QVTLKESGPVLVKPTETLTLTCTVSGIDLSHDDISWVRQAPGKGLEWVGIISYAGSTYYASWAKGRLTISKDTSKNQVVLTMTNMDPVDTATYYCARGVPAYSHGGDLWGQGTLVTVSSASTKGPSVFPLAPSSKSTSGGTAALGCLVKDYFPEPVTVSWNSGALTSGVHTFPAVLQSSGLYSLSSVVTVPSSSLGTQTYICNVNHKPSNTKVDKKVEPKSCDKTHTCPPCPAPELLNGPSVFLFPPKPKDTLMISRTPEVTCVVVDVSDEDPEVKFNWYVDGVEVHNAKTKPREEQYNSTYRVVSVLTVLHQDWLNGKEYKCKVSNKALPKPIEKTISKAKGQPREPQVYTLPPSREEMTKNQVSLTCLVKGFYPSDIAVEWESNGQPENNYKTTPPVLDSDGSFFLYSKLTVDKSRWQQGNVFSCSVMHEALHNHYTQKSLSLSP
light: DIVMTQSPATLSLSPGERATLSCTSSQSVYHANWLSWFQQKPGQPPKLLIYWASTLAYGVPSRFSGSGSGTDFTLTISSLQPEDAATYYCAGGYGGGRYAFGQGTKVEIKRTVAAPSVFIFPPSDEQLKSGTASVVCLLNNFYPREAKVQWKVDNALQSGNSQESVTEQDSKDSTYSLSSTLTLSKADYEKHKVYACEVTHQGLSSPVTKSFNRGEC
notes: also called M103205H795-MY201; copies: 2 + 2
- KD fold (SG1 = 1) [1]: 0.08 fold
- KD fold (SG1 = 1) [2]: 5 fold
- KD fold (SG1 = 1) [3]: 4.5 fold
- Kd [4]: 3.7 µM

B2: MS1032LO06-MY351 (antibody, human IgG1, kappa)
heavy: B1 heavy with Q313R, D415K
light: B1 light
notes: also called M103205H795-MY351; copies: 2 + 2
- KD fold (SG1 = 1) [5]: 0.8 fold
- KD fold (SG1 = 1) [1]: 0.07 fold
- KD fold (SG1 = 1) [6]: 0.03 fold
- KD fold (SG1 = 1) [7]: 4.7 fold
- KD fold (SG1 = 1) [8]: 3.8 fold
- Kd [9]: 5.2 µM
- KD fold (SG1 = 1) [10]: 0.07 fold
- Kd [4]: 4.1 µM
- Kd [11]: 0.012 µM

B3: M103205H795-MY001/M103202L889-SK1 (antibody, human IgG1, kappa, name in EU numbering)
heavy: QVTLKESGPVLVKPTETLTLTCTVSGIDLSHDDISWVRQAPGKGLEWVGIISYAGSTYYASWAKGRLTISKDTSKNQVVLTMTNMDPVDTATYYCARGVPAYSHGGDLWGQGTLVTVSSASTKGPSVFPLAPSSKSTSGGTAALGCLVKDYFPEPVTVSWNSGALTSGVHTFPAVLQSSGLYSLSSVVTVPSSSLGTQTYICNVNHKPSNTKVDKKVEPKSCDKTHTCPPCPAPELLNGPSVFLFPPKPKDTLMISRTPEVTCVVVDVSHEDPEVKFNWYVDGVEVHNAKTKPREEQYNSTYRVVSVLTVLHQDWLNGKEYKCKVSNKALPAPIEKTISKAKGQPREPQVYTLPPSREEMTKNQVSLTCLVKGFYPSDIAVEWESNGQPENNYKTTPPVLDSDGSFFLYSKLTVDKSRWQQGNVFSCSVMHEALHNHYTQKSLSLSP
light: B1 light
notes: Substitution introduced into M103205H795-SG1; EU numbering
- Kd [12]: 12 µM
- KD fold (SG1 = 1) [13]: 6.6 fold

B4: M103205H795-MY074/M103202L889-SK1 (antibody, human IgG1, kappa, name in EU numbering)
heavy: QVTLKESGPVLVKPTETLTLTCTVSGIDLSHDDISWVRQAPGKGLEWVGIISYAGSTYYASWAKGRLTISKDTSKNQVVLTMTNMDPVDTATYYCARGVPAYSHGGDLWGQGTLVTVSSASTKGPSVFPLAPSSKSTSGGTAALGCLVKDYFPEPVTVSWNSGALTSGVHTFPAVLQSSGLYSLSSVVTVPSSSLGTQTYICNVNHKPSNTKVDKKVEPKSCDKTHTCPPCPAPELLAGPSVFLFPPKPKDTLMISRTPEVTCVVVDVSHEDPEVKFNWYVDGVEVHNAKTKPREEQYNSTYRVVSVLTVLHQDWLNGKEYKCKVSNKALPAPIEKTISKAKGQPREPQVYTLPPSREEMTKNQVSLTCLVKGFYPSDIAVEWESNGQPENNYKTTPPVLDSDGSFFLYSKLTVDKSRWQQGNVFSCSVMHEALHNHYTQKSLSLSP
light: B1 light
notes: as for B3
- Kd [14]: 2.3 µM
- Kd [15]: 3.6 µM
- Kd [16]: 0.21 µM

B5: MS_M103205H707-SG1/M103202L802-SK1 (antibody, human IgG1, kappa, V domains shown)
VH: QVTLKESGPVLVKPTETLTLTCTVSGIDLSHYDISWVRQAPGKGLEWVGIISYAGSTYYASWAKGRLTISKDTSKNQVVLTMTNMDPVDTATYYCARGVPAYSHGGDLWGQGTLVTVSS
VL: DIVMTQSPATLSLSPGERATLSCTSSQSVYHDNWLSWFQQKPGQPPKLLIYWASTLAYGVPSRFSGSGSGTDFTLTISSLQPEDAATYYCAGGYGGGLYAFGQGTKVEIKR
notes: also called MS1032LO04-SG1
- kon [17]: 1.54e+06 M⁻¹ s⁻¹
- kon [18]: 781000 M⁻¹ s⁻¹

B6: MS103240H795-SG1/M103202L1045-SK1 (antibody, human IgG1, kappa)
heavy: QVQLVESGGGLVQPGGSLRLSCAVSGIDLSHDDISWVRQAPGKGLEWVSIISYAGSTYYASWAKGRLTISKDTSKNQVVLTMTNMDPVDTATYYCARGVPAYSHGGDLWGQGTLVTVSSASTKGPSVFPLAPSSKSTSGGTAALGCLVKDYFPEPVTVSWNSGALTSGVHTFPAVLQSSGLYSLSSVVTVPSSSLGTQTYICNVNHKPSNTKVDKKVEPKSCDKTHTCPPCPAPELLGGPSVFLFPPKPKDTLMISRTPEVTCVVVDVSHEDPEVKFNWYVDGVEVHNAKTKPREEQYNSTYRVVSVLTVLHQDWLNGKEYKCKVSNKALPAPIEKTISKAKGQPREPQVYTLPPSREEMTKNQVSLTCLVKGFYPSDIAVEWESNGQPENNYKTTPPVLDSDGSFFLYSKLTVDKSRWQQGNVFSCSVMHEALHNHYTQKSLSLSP
light: B1 light with S25T, A32E
notes: Parent of the Fc variants; anti-latent myostatin variable region, human IgG1-type constant region SG1; also called MS1032LO19-SG1; copies: 2 + 2
- Kd [19]: 5.8 µM
